Reference: patent US20160311919A1

How the values were obtained:
[1] = target: GPNMB-V5His (recombinant human GPNMB extracellular domain with C-terminal V5-His tag) (human) (UniProt Q14956); assay: SPR (Biacore), mAb on protein A, GPNMB 880 nM
[2] = target: GPNMB-V5His (recombinant human GPNMB extracellular domain with C-terminal V5-His tag) (human) (UniProt Q14956); assay: ELISA, coated GPNMB, Ab 37 ng/mL
[3] = target: GPNMB-V5His (recombinant human GPNMB extracellular domain with C-terminal V5-His tag) (human) (UniProt Q14956); assay: ELISA, coated GPNMB, Ab 111 ng/mL
[4] = target: GPNMB-V5His (recombinant human GPNMB extracellular domain with C-terminal V5-His tag) (human) (UniProt Q14956); assay: ELISA, coated GPNMB, Ab 12.3 ng/mL
[5] = target: GPNMB-V5His (recombinant human GPNMB extracellular domain with C-terminal V5-His tag) (human) (UniProt Q14956); assay: ELISA, coated GPNMB, Ab 1 ug/mL
[6] = target: GPNMB-V5His (recombinant human GPNMB extracellular domain with C-terminal V5-His tag) (human) (UniProt Q14956); assay: ELISA, coated GPNMB, Ab 333 ng/mL
[7] = target: GPNMB-V5His (recombinant human GPNMB extracellular domain with C-terminal V5-His tag) (human) (UniProt Q14956); assay: ELISA, coated GPNMB, Ab 3 ug/mL

| Binder | Kd [1] [nM] | koff [1] [s⁻¹] | kon [1] [M⁻¹ s⁻¹] | Avg OD [2] [OD] | Avg OD [3] [OD] | Avg OD [4] [OD] | Avg OD [5] [OD] | Avg OD [6] [OD] | Avg OD [7] [OD] |
| --- | --- | --- | --- | --- | --- | --- | --- | --- | --- |
| GPNMB antibody (1.10.1) (antibody, V domains shown) VH: QVQLQESGPGLVKPSETLSLTCTVSGDSISNYYWSWIRQPPGKGLEWIGYFYYSGSTNYNPSLKSRVTISVDTSKNQFSLKLSSVTAADTAVYYCARDRGWADYWGQGTLVTVSS VL: EIVLTQSPGTLSLSPGERATLSCRTSQSISSSYLAWYQQKPGQVPRLLIYGASSRATGIPDRFSGSGSGTDFTLTISRLEPEDFAVYYCQQYGSSITFGQGTRLEIKR | 209 | 0.000885 | 4240 | – | – | – | – | – | – |
| 2-22 (hybridoma of Table 6) (antibody, V domains shown) VH: QVQLEQSGPGLVKPSQNLSLTCTVSGGSISSGGYFWSWIRQHPGKGLEWIGYIYYSGNTYYNPSLKSRVTISVDTSKNQFSLKLSSVTAADTAVYYCARDYYYDTSGFSYRYDWYYGMDVWGQGTTVTVSS VL: DIQLTQSPSSLSASVGDRVTITCRASQGIRNDLGWYQQKPGKAPKRLIYAASSLQNGVPSRFSGSGSGTEFTLTISSLQPEDFATYYCLQHNTYPAFGQGTKVEIKR | – | – | – | 0.171 | 0.355 | 0.068 | 0.707 | 0.538 | 0.714 |
| 2-7 (hybridoma of Table 6) (antibody, V domains shown) VH: QVQLEQSGGGVVQPGRSLRLSCAASGFTFNNYGMHWVRQAPGKGLEWVAVIWYDGSNKYYADSVKGRFTISRDNSKNTLYLQMNSLRAEDTAVYYCAKDEEYYYVSGLDYWGQGTLVTVSS VL: LTQSPSSLSASVRDRVTITCRASQDISNYLAWYQQKPGKVPNLLIYAASTLQSGVPSRFSGSGSGTDFTLTISSLQPEDVATYYCQKYNSAPLTFGGGTKVEIKR | – | – | – | 0.308 | 0.494 | 0.156 | 0.719 | 0.68 | 0.827 |
| 2-17 (hybridoma of Table 6) (antibody, V domains shown) VH: QLVQSGAEVKKPGASVKVSCKASGYTFTGFYMHWVRQTPGQGLEWMGWINPNSGGTYYVQKFQGRVTMTRDTSISTVYMELSRLRSDDTAVYYCARDGYSSGEDWFDPWGQGTLVTVSS VL: DIVMTQTPLSLSVTPGQPASISCKSSQSLLHSGGKTYLYWYLQRPGQPPQLLIYEVSNRFSGVPDRFSGSGSGTDFTLKISRVEAEDVGVYYCMQSIHLPLTFGGGTKVEIKR | – | – | – | 0.008 | 0.009 | 0.011 | 0.019 | 0.01 | 0.053 |

Other lines, results leading:

| Kd [1] [nM] | koff [1] [s⁻¹] | kon [1] [M⁻¹ s⁻¹] | Avg OD [2] [OD] | Avg OD [3] [OD] | Avg OD [4] [OD] | Avg OD [5] [OD] | Avg OD [6] [OD] | Avg OD [7] [OD] | Binder |
| --- | --- | --- | --- | --- | --- | --- | --- | --- | --- |
| 118 | 0.000466 | 3960 | – | – | – | – | – | – | Mab1.10.2 (antibody, human IgG2, V domains shown) VH: QVQLQESGPGLVKPSETLSLTCTVSGDSISNYYWSWIRQPPGKGLEWIGYFYYSGSTNYNPSLKSRVTISVDTSKNQFSLKLSSVTAADTAVYYCARDRGWADYWGQGTLVTVSS VL: EIVLTQSPGTLSLSPGERATLSCRTSQSISSSYLAWYQQKPGQVPRLLIYGASSRATGIPDRFSGSGSGTDFTLTISRLEPEDFAVYYCQQYGSSITFGQGTRLEIKR |
| – | – | – | 0.246 | 0.395 | 0.127 | 0.568 | 0.578 | 0.601 | 2-15 (hybridoma of Table 6) (antibody, V domains shown) VH: QVQLVESGGGVVQPGRSLRLSCAASGFTFSNYGIHWVRQAPGKGLEWVAVIWFDGRNKYYADSVKGRFTISRDNSKNTLYLQMNSLRAEDAAVYYCARDPFDYGDSFFDYWGQGTLVTVSS VL: LTQSPSSLSASVRDRVTITCRASQDISNYLAWYQQKPGKVPNLLIYAASTLQSGVPSRFSGSGSGTDFTLTISSLQPEDVATYYCQKYNSAPLTFGGGTKVEIKR |
| 121 | 0.00117 | 9650 | 0.239 | 0.451 | 0.094 | 0.871 | 0.76 | 1 | 1.7.3 (antibody, V domains shown) VH: QVQLQESGPGLVKPSQTLSLTCTVSGGSISSANYYWTWIRQHPGKGLEWIGYIYYSGSTYCNPSLKSRVIISVDTSKNQFSLKLSSVTAADTAVYYCARGYNWNYFDYWGQGTLVTVSS VL: DIVMTQSPATLSVSPGERATLSCRASQSVSSNLAWYQERPGQAPRLLIYGASTRATGIPARFSGSGSGTEFTLTISSLQSEDFAVYYCQQYNKWPPWTFGQGTKVEIER |
| 122 | 0.00144 | 11800 | – | – | – | – | – | – | Mab1.7.1 (antibody, human IgG2, V domains shown) VH: QVQLQESGPGLVKPSQTLSLTCTVSGGSISSANYYWTWIRQHPGKGLEWIGYIYYSGSTYCNPSLKSRVIISVDTSKNQFSLKLSSVTAADTAVYYCARGYNWNYFDYWGQGTLVTVSS VL: DIVMTQSPATLSVSPGERATLSCRASQSVSSNLAWYQERPGQAPRLLIYGASTRATGIPARFSGSGSGTEFTLTISSLQSEDFAVYYCQQYNKWPPWTFGQGTKVEIER |
| 96 | 0.00089 | 9260 | 0.094 | 0.199 | 0.049 | 0.499 | 0.356 | 0.763 | Mab1.2.2 (antibody, human IgG2, V domains shown) VH: ITLKESGPTLVKPTQTLTLTCTFSGFSLSAGGVGVGWIRQPPGKALEWLALIYWNDDKRYSPSLRSRLTITKDTSKNQVVLTITNMDPVDTATYYCAHSHYDYDWGSYFDYWGQGTLVTVSS VL: DIVMTQTPLSLPVTPGEPASISCRSSQSLLDSDDGNTYLDWYLQKPGQSPQLLIYTLSYRASGVPDRFSGSGSGTDFTLNISRVEAEDVGVYYCMQRIEFPITFGQGTRLEIKR |
| – | – | – | 0.017 | 0.032 | 0.011 | 0.173 | 0.068 | 0.359 | 2-16 (hybridoma of Table 6) (antibody, V domains shown) VH: QVQLVESGGGLVKPGGSLRLSCAASGFTFSDYYMTWIRQAPGKGLEWVSYISISGSITHYADSVKGRFTMSRDNAKNSLYLQMNSLRAEDTAVYYCARDGAAAGTDAFDIWGHGTKVTVSS VL: EIVMTQSPATLSVSPGDRATLSCRASQNVSSNLAWYQQKPGQAPRLLIFGASTRATGIPARFSGSGSGTEFTLTISSLQSEDFAVYYCQQYHYWPTFGPGTKVDIKR |
